Source: US20250145716A1 (RAKUTEN MEDICAL, published 2025)

Columns and labels:
[1] = target: T1, human PD-L1 expressed on cells (human, UniProt Q9NZQ7 19-290); test: flow cytometry on unstimulated A431 cells, ratio of EC50 values
T1 construct: whole, on cells; One entry covers all human PD-L1-bearing cells; also called huPD-L1 on CHO cells (CHO-hPD-L1); PD-L1 on A431 cells
Description: Approximately 2.5×10⁵ A431 squamous cell carcinoma cells were plated in a final volume of 50 μL FACS buffer (phosphate buffered saline, 1% fetal bovine serum, 5 mM EDTA) in 96-well plates. 50 μL 2× Zombie Violet (BioLegend) were added to each well, and the plates were incubated 20-30 minutes at room temperature, protected from light. After incubation, 150 μL FACS buffer were added to each well. The plates were centrifuged at 500×g for 5 minutes. The supernatant was removed, and the cell pellet were resuspended in 200 μL FACS buffer. The wash procedure was repeated for a total of 2-3 washes. […] After the cells were incubated with the primary anti-PD-L1 antibody 1 hour on ice, protected from light, 150 μL FACS buffer were added to each well. The plates were then centrifuged, the supernatant was removed, and the cells were resuspended in 250 μL FACS buffer three times. After the third wash, the cells were resuspended in 100 μL goat anti-human IgG-Alexa Fluor 488 secondary antibody, and incubated for 30 minutes on ice, protected from light. After 3 washes as previously described, the cells were resuspended in 200 μL FACS buffer. The cells were then analyzed using a CytoFLEX flow cytometer.

[2] = target: T1, human PD-L1 expressed on cells; test: flow cytometry, PD-L1-expressing CHO cells, MFI (FITC)
Description: Wild-type (wt) Chinese hamster ovary (CHO) cells (ATCC) and CHO cells engineered to express huPD-L1 (BPS Bioscience) were seeded at 200,000 cells in 50 μL FACS buffer (PBS containing 1% FBS and 5 mM EDTA) per well of a 96-well plate. Cell viability was assessed by adding 50 μL 2×Zombie Violet (BioLegend). Dead cell controls were also prepared and 2×Zombie violet was added. After incubating 20-30 minutes at room temperature, protected from light, 150 μL FACS buffer were added to each well. The plates were centrifuged, and the supernatant was aspirated. […] The plates were incubated 30 minutes on ice, protected from light. 150 μL FACS buffer were then added to each well and the plate was centrifuged. The supernatant was removed and the cells were washed three times in 200 μL FACS buffer. […] The cells were incubated 30 minutes on ice, protected from light. 150 μL FACS buffer were then added to each well and the plate was centrifuged. Supernatant was removed and the cells were washed twice with 200 μL FACS buffer. The cells were then resuspended in FACS buffer and analyzed by CytoFLEX using the appropriate channels. After gating for whole, single, live cells, the MFI in the APC channel (or FITC channel for human control samples) was normalized to the signal from hybridoma media alone (or isotype control for human control). MFI fold over media alone was determined for each clone supernatant tested.

[3] = target: T1, human PD-L1 expressed on cells; test: cell-based or functional assay

T1 sequence (Q9NZQ7 19-290): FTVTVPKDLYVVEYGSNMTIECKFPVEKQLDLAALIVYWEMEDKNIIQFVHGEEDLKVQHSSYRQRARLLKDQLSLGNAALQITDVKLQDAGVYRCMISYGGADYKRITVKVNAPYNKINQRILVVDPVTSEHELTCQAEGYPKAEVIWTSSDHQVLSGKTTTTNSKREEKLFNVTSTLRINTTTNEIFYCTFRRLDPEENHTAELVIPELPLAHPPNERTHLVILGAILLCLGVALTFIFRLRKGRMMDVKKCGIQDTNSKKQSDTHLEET

- fold potency against avelumab [1]: 3.5 fold
- EC50 [2]: 0.0199 µg/mL
- EC50 of luminescence (RLU), PD-1:PD-L1 Blockade Bioassay (PD-L1 aAPC/CHO-K1 cells with PD-1 Effector Jurkat NFAT-luciferase cells) [3]: 0.067 µg/mL
B1: 1P9 (antibody, V domains shown)
VH: EVQLVESGGGLVQPGGSLRLSCAASGFTFSTYWMSWVRQAPGKGLEWVANIKQDGGERYYVDSVKGRFTISRDNAKSSLYLQMNSLRAEDTALYYCARLRLYSDYEDYWGQGTLVTVSS
VL: DIQMTQSPSSVSASVGDRVTITCRASQGISSWLAWYQQKPGKAPKLLIYSVSSLQSGVPSRFSGSGSGTDFTLTISSLQPEDSATYYCQQANSLPPTFGGGTKVEIK
notes: Recombinant full-length human antibody expressed in CHO K1 GS KO cells, with wild-type human Fc; also called anti-PD-L1 antibody 1P9; Unconj; 1P9
